Results on one protein are retold here after paper PMC8571087, “Sphingadienine-1-phosphate levels are regulated by a novel glycoside hydrolase family 1 glucocerebrosidase widely distributed in seed plants” (The Journal of Biological Chemistry, 2021).

Substrate in data set [1]: O=[N+]([O-])c1ccc(O[C@@H]2O[C@H](CO)[C@@H](O)[C@H](O)[C@H]2O)cc1
The experiment in a line: purified protein. The conditions noted are these: Buffer J pH 5.5 (sodium acetate, sodium cholate, 0.1% Tween 20), 37 °C, 15 min.

Substrate in data set [2]: CCCCCCCCC/C=C/CC/C=C/[C@@H](O)[C@H](CO[C@@H]1O[C@H](CO)[C@@H](O)[C@H](O)[C@H]1O)NC(=O)[C@H](O)CCCCCCCCCCCCCC
Put plainly: ceramide release by LC-ESI-MS/MS, Hanes-Woolf plot. Type of data set: biochemical, Oryza sativa. As to conditions: Buffer J pH 5.5 (sodium acetate, sodium cholate, 0.1% Tween 20), 37 °C, 15 min. The source says:
(§1) ceramide release by LC-ESI-MS/MS, Hanes-Woolf plot on Os3BGlu6 (GCase purified from rice leaves)

Substrate in data set [3]: CCCCCCCCC/C=C\CC/C=C/[C@@H](O)[C@H](CO[C@@H]1O[C@H](CO)[C@@H](O)[C@H](O)[C@H]1O)NC(=O)[C@H](O)CCCCCCCCCCCCCC
Put plainly: ceramide release by LC-ESI-MS/MS, Hanes-Woolf plot. Type of data set: biochemical, Oryza sativa. The conditions noted are these: Buffer J pH 5.5 (sodium acetate, sodium cholate, 0.1% Tween 20), 37 °C, 15 min.
Description: as §1

Substrate in data set [4]: CCCCCCCCCCCC/C=C/[C@@H](O)C(=O)N[C@@H](CO[C@@H]1O[C@H](CO)[C@@H](O)[C@H](O)[C@H]1O)[C@H](O)/C=C/CC/C=C(\C)CCCCCCCCC
Put plainly: ceramide release by HPLC, Hanes-Woolf plot. The conditions noted are these: Buffer J pH 5.5 (sodium acetate, sodium cholate, 0.1% Tween 20), 37 °C, 15 min. Type of data set: biochemical, Oryza sativa. The source says:
(§2) ceramide release by HPLC, Hanes-Woolf plot on Os3BGlu6 (GCase purified from rice leaves)

Substrate in data set [5]: CCCCCCCCCCCCC/C=C/[C@@H](O)[C@H](CO[C@@H]1O[C@H](CO)[C@@H](O)[C@H](O)[C@H]1O)NC(=O)CCCCCCC
The experiment in a line: ceramide release by HPLC, Hanes-Woolf plot. The data set is classed as biochemical, Oryza sativa. The conditions noted are these: Buffer J pH 5.5 (sodium acetate, sodium cholate, 0.1% Tween 20), 37 °C, 15 min.
Description: as §2

Substrate in data set [6]: CCCCCCCCCCCCC/C=C/[C@@H](O)[C@H](CO[C@@H]1O[C@H](CO)[C@@H](O)[C@H](O)[C@H]1O)NC(=O)CCCCCCCCCCC
The experiment in a line: ceramide release by HPLC, Hanes-Woolf plot. Type of data set: biochemical, Oryza sativa. As to conditions: Buffer J pH 5.5 (sodium acetate, sodium cholate, 0.1% Tween 20), 37 °C, 15 min.
Description: as §2

Substrate in data set [7]: CCCCCCCCCCCCC/C=C/[C@@H](O)[C@H](CO[C@@H]1O[C@H](CO)[C@@H](O)[C@H](O)[C@H]1O)NC(=O)CCCCCNc1ccc([N+](=O)[O-])c2nonc12
The experiment in a line: hydrolysis, Hanes-Woolf plot. Type of data set: biochemical, Oryza sativa. The conditions noted are these: Buffer J pH 5.5 (sodium acetate, sodium cholate, 0.1% Tween 20), 37 °C, 15 min, labelled compound (NBD).

B1: Os3BGlu6 (GCase purified from rice leaves) (Oryza sativa Japonica Group) (protein)
chain: QQSGGGLTRGSFPEGFVFGTASAAYQYEGAVKEDGRGQTIWDTFAHTFGKITDFSNADVAVDQYHRFEEDIQLMADMGMDAYRFSIAWSRIYPNGVGQVNQAGIDHYNKLIDALLAKGIQPYVTLYHWDLPQALEDKYKGWLDRQIVDDFAAYAETCFREFGDRVKHWITLNEPHTVAIQGYDAGLQAPGRCSVLLHLYCKAGNSGTEPYVVAHHFILAHAAAASIYRTKYKATQNGQLGIAFDVMWFEPMSNTTIDIEAAKRAQEFQLGWFADPFFFGDYPATMRARVGERLPRFTADEAAVVKGALDFVGINHYTTYYTRHNNTNIIGTLLNNTLADTGTVSLPFKNGKPIGDRANSIWLYIVPRGMRSLMNYVKERYNSPPVYITENGMDDSNNPFISIKDALKDSKRIKYHNDYLTNLAASIKEDGCDVRGYFAWSLLDNWEWAAGYSSRFGLYFVDYKDNLKRYPKNSVQWFKALLKT
Regarding B1, the Km – broadly, the concentration of substrate that gives half-maximal velocity – in data set [1] came to 3825.3 ± 201.2 µM; in data set [2], 50.0 ± 2.4 µM; in data set [3], 19.8 ± 0.8 µM; in data set [4], 41.1 ± 4.3 µM; in data set [5], 47.5 ± 3.8 µM; in data set [6], 46.1 ± 5.1 µM. Besides, the Km in data set [7] worked out at 57.1 ± 7.9 µM. The kcat (as a rule, the maximal rate divided by the concentration of active sites) was 285 s⁻¹ in data set [1]; 146 ± 4.7 s⁻¹ in data set [2]; 116 ± 2.9 s⁻¹ in data set [3]; 151 ± 9.1 s⁻¹ in data set [4]; 156 ± 8.6 s⁻¹ in data set [5]; 121 ± 4.4 s⁻¹ in data set [6]. For the same protein, the kcat in data set [7] came out at 112 ± 11.8 s⁻¹. Further, the kcat/Km (usually the turnover number divided by the Michaelis constant) in data set [1] was 75000 M⁻¹ s⁻¹; in data set [2], 2.92e+06 ± 50000 M⁻¹ s⁻¹; in data set [3], 5.85e+06 ± 190000 M⁻¹ s⁻¹; in data set [4], 3.7e+06 ± 280000 M⁻¹ s⁻¹; in data set [5], 3.29e+06 ± 150000 M⁻¹ s⁻¹; in data set [6], 2.64e+06 ± 190000 M⁻¹ s⁻¹. Also, the kcat/Km in data set [7] is 1.97e+06 ± 120000 M⁻¹ s⁻¹.
